Source: the supplement of paper PMC11246515
± gives the standard deviation of the averaged measurements.

Experiment: total protein half-life in vivo (active degradation + dilution); higher = more stable protein
[1] = E. coli NCM3722 delta-clpP delta-lon delta-hslV, growth: N-lim chemostat, doubling time 6 h
[2] = E. coli NCM3722 delta-lon, growth: N-lim chemostat, doubling time 6 h
[3] = E. coli NCM3722 delta-smpB, growth: N-lim chemostat, doubling time 6 h
[4] = E. coli NCM3722 delta-clpP, growth: N-lim chemostat, doubling time 6 h
[5] = E. coli NCM3722 delta-hslV, growth: N-lim chemostat, doubling time 6 h
[6] = wild type E. coli NCM3722, growth: C-lim chemostat, doubling time 3 h
[7] = wild type E. coli NCM3722, growth: C-lim chemostat, doubling time 6 h
[8] = wild type E. coli NCM3722, growth: C-lim chemostat, doubling time 12 h
[9] = wild type E. coli NCM3722, growth: N-lim chemostat, doubling time 6 h
[10] = wild type E. coli NCM3722, growth: N-lim chemostat, doubling time 12 h
[11] = wild type E. coli NCM3722, growth: P-lim chemostat, doubling time 6 h
[12] = wild type E. coli NCM3722, growth: P-lim chemostat, doubling time 12 h

Sequence	total protein half-life in vivo [1] [h]	total protein half-life in vivo [2] [h]	total protein half-life in vivo [3] [h]	total protein half-life in vivo [4] [h]	total protein half-life in vivo [5] [h]	total protein half-life in vivo [6] [h]	total protein half-life in vivo [7] [h]	total protein half-life in vivo [8] [h]	total protein half-life in vivo [9] [h]	total protein half-life in vivo [10] [h]	total protein half-life in vivo [11] [h]	total protein half-life in vivo [12] [h]
MSTIIMDLCSYTRLGLTGYLLSRGVKKREINDIETVDDLAIACDSQRPSVVFINEDCFIHDASNSQRIKLIINQHPNTLFIVFMAIANVHFDEYLLVRKNLLISSKSIKPESLDDILGDILKKETTITSFLNMPTLSLSRTESSMLRMWMAGQGTIQISDQMNIKAKTVSSHKGNIKRKIKTHNKQVIYHVVRLTDNVTNGIFVNMR [P0DMC9]	5.4 ± 0.66	1 ± 0.029	1.51 ± 0.036									
MKKIALIIGSMIAGGIISAAGFTWVAKAEPPAEKTSTAERKILFWYDPMYPNTRFDKPGKSPFMDMDLVPKYADEESSASGVRIDPTQTQNLGVKTATVTRGPLTFAQSFPANVSYNEYQYAIVQARAAGFIDKVYPLTVGDKVQKGTPLLDLTIPDWVEAQSEYLLLRETGGTATQTEGILERLRLAGMPEADIRRLIATQKIQTRFTLKAPIDGVITAFDLRAGMNIAKDNVVAKIQGMDPVWVTAAIPESIAWLVKDASQFTLTVPARPDKTLTIRKWTLLPGVDAATRTLQLRLEVDNADEALKPGMNAWLQLNTASEPMLLIPSQALIDTGSEQRVITVDADGRFVPKRVAVFQASQGVTALRSGLAEGEKVVSSGLFLIDSEANISGALERMRSESATHAH	2.95	4.62	4.32 ± 1.3	4.8	5.69 ± 0.66	> 4	5.79	> 16	5.73 ± 0.53	10.2 ± 0.68	5.52 ± 0.11	10.7 ± 0.35
MPFKPLVTAGIESLLNTFLYRSPALKTARSRLLGKVLRVEVKGFSTSLILVFSERQVDVLGEWAGDADCTVIAYASVLPKLRDRQQLTALIRSGELEVQGDIQVVQNFVALADLAEFDPAELLAPYTGDIAAEGISKAMRGGAKFLHHGIKRQQRYVAEAITEEWRMAPGPLEVAWFAEETAAVERAVDALTKRLEKLEAK [P0ADP7]	5.27 ± 0.14	4.977 ± 0.043	4.88 ± 0.14			2.77 ± 0.21	4.84 ± 0.24	7.62 ± 0.27	4.76 ± 0.091	8.56 ± 0.1	4.93 ± 0.25	8.919 ± 0.012
MRALPICLVALMLSGCSMLSRSPVEPVQSTAPQPKAEPAKPKAPRATPVRIYTNAEELVGKPFRDLGEVSGDSCQASNQDSPPSIPTARKRMQINASKMKANAVLLHSCEVTSGTPGCYRQAVCIGSALNITAK	5.47 ± 0.43	6.404 ± 0.011	5.51 ± 0.33	5.57 ± 0.38	6.58 ± 0.75	2.89 ± 0.62	5.65 ± 0.51	12.4 ± 3.6	5.65 ± 0.16	14.7 ± 1.2	6.5 ± 1.4	13.4 ± 0.85
MKRLIMATMVTAILASSTVWAADNAPVAAQQQTQQVQQTQKTAAAAERISEQGLYAMRDVQVARLALFHGDPEKAKELTNEASALLSDDSTEWAKFAKPGKKTNLNDDQYIVINASVGISESYVATPEKEAAIKIANEKMAKGDKKGAMEELRLAGVGVMENQYLMPLKQTRNALADAQKLLDKKQYYEANLALKGAEDGIIVDSEALFVN											4.05	
MNNKGSGLTPAQALDKLDALYEQSVVALRNAIGNYITSGELPDENARKQGLFVYPSLTVTWDGSTTNPPKTRAFGRFTHAGSYTTTITRPTLFRSYLNEQLTLLYQDYGAHISVQPSQHEIPYPYVIDGSELTLDRSMSAGLTRYFPTTELAQIGDETADGIYHPTEFSPLSHFDARRVDFSLARLRHYTGTPVEHFQPFVLFTNYTRYVDEFVRWGCSQILDPDSPYIALSCAGGNWITAETEAPEEAISDLAWKKHQMPAWHLITADGQGITLVNIGVGPSNAKTICDHLAVLRPDVWLMIGHCGGLRESQAIGDYVLAHAYLRDDHVLDAVLPPDIPIPSIAEVQRALYDATKLVSGRPGEEVKQRLRTGTVVTTDDRNWELRYSASALRFNLSRAVAIDMESATIAAQGYRFRVPYGTLLCVSDKPLHGEIKLPGQANRFYEGAISEHLQIGIRAIDLLRAEGDRLHSRKLRTFNEPPFR [P0AE12]	6.26 ± 1.5	4.76 ± 0.66	4.37 ± 0.083	5.49 ± 1	5.31 ± 0.55	3.24 ± 0.42	6.34 ± 0.73	10.6 ± 0.36	4.51 ± 0.26	8.24 ± 1.3	6.19 ± 0.32	
MSQKTLFTKSALAVAVALISTQAWSAGFQLNEFSSSGLGRAYSGEGAIADDAGNVSRNPALITMFDRPTFSAGAVYIDPDVNISGTSPSGRSLKADNIAPTAWVPNMHFVAPINDQFGWGASITSNYGLATEFNDTYAGGSVGGTTDLETMNLNLSGAYRLNNAWSFGLGFNAVYARAKIERFAGDLGQLVAGQIMQSPAGQTQQGQALAATANGIDSNTKIAHLNGNQWGFGWNAGILYELDKNNRYALTYRSEVKIDFKGNYSSDLNRAFNNYGLPIPTATGGATQSGYLTLNLPEMWEVSGYNRVDPQWAIHYSLAYTSWSQFQQLKATSTSGDTLFQKHEGFKDAYRIALGTTYYYDDNWTFRTGIAFDDSPVPAQNRSISIPDQDRFWLSAGTTYAFNKDASVDVGVSYMHGQSVKINEGPYQFESEGKAWLFGTNFNYAF	6.74 ± 1.8		5.52 ± 0.67			3.2 ± 0.064	6.165 ± 0.014	10.9 ± 0.23	6.3 ± 0.37	11.1 ± 0.23	6.09 ± 0.34	12.2 ± 1.2
MVTKKQSRVPGRPRRFAPEQAISAAKVLFHQKGFDAVSVAEVTDYLGINPPSLYAAFGSKAGLFSRVLNEYVGTEAIPLADILRDDRPVGECLVEVLKEAARRYSQNGGCAGCMVLEGIHSHDPQARDIAVQYYHAAETTIYDYIARRHPQRAQCVTDFMSTVMSGLSAKAREGHSIEQLCATAAMAGEAIKTILEE	4.87 ± 0.78	5.66 ± 2.6	2.87 ± 0.24	4.19 ± 0.7		2.66 ± 0.17	4.19	4.59 ± 4.8	3.48 ± 0.37	6.59 ± 0.21		6.26
